According to US20240376218A1 (published 2024):
Each block holds one binder with its values, some of them ahead of it.

Experiments:
human CCR8 [1] = target: T1, human CCR8 (human, UniProt P51685 1-355); experiment: FACS, HuT78 cells endogenously expressing human CCR8
T1 construct: also called hCCR8; P51685_CCR8_HUMAN

[2] = target: T2, FcRn immobilized on FcRn column (Roche, Order No. 8128057001); experiment: FcRn affinity chromatography, linear pH gradient
T2 construct: bought prepacked column; also called immobilized FcRn
Method: 30 μL of each antibody (1 mg/mL in equilibration buffer) was applied to the column.

human CCR8 [3] = target: T3, human CCR8 (human, UniProt P51685 1-355); experiment: cell-based or functional assay
human CCR8 [4] = target: T3, human CCR8; experiment: cell-based or functional assay; remark: listed apart in the source
murine CCR8 [5] = target: T4, murine CCR8 (mouse, UniProt P56484 1-353); experiment: cell-based or functional assay
T4 sequence: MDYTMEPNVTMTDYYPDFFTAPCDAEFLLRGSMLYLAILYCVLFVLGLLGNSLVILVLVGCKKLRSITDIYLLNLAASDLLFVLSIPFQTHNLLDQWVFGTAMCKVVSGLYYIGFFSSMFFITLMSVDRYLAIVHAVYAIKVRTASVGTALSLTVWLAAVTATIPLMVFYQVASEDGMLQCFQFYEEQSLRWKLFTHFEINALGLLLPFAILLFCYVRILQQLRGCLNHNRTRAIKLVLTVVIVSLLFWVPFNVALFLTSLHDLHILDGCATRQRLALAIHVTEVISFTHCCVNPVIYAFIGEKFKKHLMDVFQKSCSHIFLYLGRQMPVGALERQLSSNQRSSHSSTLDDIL

murine CCR8 [6] = target: T5, murine CCR8 (mouse, UniProt P56484 1-353); experiment: cell-based or functional assay; remark: listed apart in the source
T5 sequence: T4 sequence

murine CCR8 [7] = target: T4, murine CCR8; experiment: cell-based or functional assay; remark: listed apart in the source

B4: TPP-14095 (antibody, human IgG1, lambda, V domains shown)
VH: EVQLLESGGGLVQPGGSLRLSCAASGFTFSSYGMHWVRQAPGKGLEWVSAISGSGGSTYYADSVKGRFTISRDNSKNTLYLQMNSLRAEDTAVYYCARGRQLGSWGQGTLVTVSS
VL: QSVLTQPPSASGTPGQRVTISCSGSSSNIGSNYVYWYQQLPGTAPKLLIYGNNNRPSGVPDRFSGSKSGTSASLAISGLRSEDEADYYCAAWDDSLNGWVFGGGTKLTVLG
Ca flux assay IC50 (nM), block of signaling induced by CCL1 at 40 ng/ml; CHO cells expressing murine CCR8 (murine CCR8 [5]): 1.65 nM

B5: TPP-15285 (antibody, mouse IgG2a)
heavy: EVQLLESGGGLVQPGGSLRLSCAASGFTFSDYGVHWVRQAPGKGLEWVSGVSWNGSRTHYADSVKGRFTISRDNSKNTLYLQMNSLRAEDTAVYYCVTRGAWGQGTLVTVSSAKTTAPSVYPLAPVCGDTTGSSVTLGCLVKGYFPEPVTLTWNSGSLSSGVHTFPAVLQSDLYTLSSSVTVTSSTWPSQSITCNVAHPASSTKVDKKIEPRGPTIKPCPPCKCPAPNLLGGPSVFIFPPKIKDVLMISLSPIVTCVVVDVSEDDPDVQISWFVNNVEVHTAQTQTHREDYNSTLRVVSALPIQHQDWMSGKEFKCKVNNKDLPAPIERTISKPKGSVRAPQVYVLPPPEEEMTKKQVTLTCMVTDFMPEDIYVEWTNNGKTELNYKNTEPVLDSDGSYFMYSKLRVEKKNWVERNSYSCSVVHEGLHNHHTTKSFSRTPGK
light: QSVLTQPPSASGTPGQRVTISCSGSSFNIGSHFVYWYQQLPGTAPKLLIYKNNQRPSGVPDRFSGSKSGTSASLAISGLRSEDEADYYCAAWDDSLNGPVFGGGTKLTVLGQPKSSPSVTLFPPSSEELETNKATLVCTITDFYPGVVTVDWKVDGTPVTQGMETTQPSKQSNNKYMASSYLTLTARAWERHSSYSCQVTHEGHTVEKSLSRADCS
ADCC EC50 (pM); murine CCR8 expressing HEK293 target cells, primary murine NK effector cells (murine CCR8 [6]): 111 pM

B6: TPP-15285 (antibody, mouse IgG2a)
heavy: B5 heavy
light: B5 light
ADCP EC50 (pM); murine CCR8 expressing HEK293 target cells, murine bone marrow derived M2 macrophages (murine CCR8 [7]): 402 pM

Further lines, results first:

EC50 (human CCR8 [1]): 3.25 nM
B1: TPP-27495 (antibody, human IgG1, lambda)
heavy: EVQLLESGGGLVQPGGSLRLSCAASGFTFSSYGMHWVRQAPGKGLEWVSAINWNGGSTGYADSVKGRFTISRDNSKNTLYLQMNSLRAEDTAVYYCARGHHSGYDGRFFDYWGQGTLVTVSSASTKGPSVFPLAPSSKSTSGGTAALGCLVKDYFPEPVTVSWNSGALTSGVHTFPAVLQSSGLYSLSSVVTVPSSSLGTQTYICNVNHKPSNTKVDKKVEPKSCDKTHTCPPCPAPELLGGPSVFLFPPKPKDTLYITREPEVTCVVVDVSHEDPEVKFNWYVDGVEVHNAKTKPREEQYNSTYRVVSVLTVLHQDWLNGKEYKCKVSNKALPAPIEKTISKAKGQPREPQVYTLPPSRDELTKNQVSLTCLVKGFYPSDIAVEWESNGQPENNYKTTPPVLDSDGSFFLYSKLTVDKSRWQQGNVFSCSVMHEALHNHYTQKSLSLSPGK
light: not shown
notes: 70% afucosylated

pH at Elution [2]: 7.88 pH
B2: TPP-27495 (antibody, human IgG1, lambda)
heavy: B1 heavy
light: not shown
modifications: 70% afucosylated

Ca flux assay Span ratio (from max to min), block of signaling induced by CCL1 at 60 ng/ml; CHO cells expressing human CCR8 (human CCR8 [3]): ~11400
Ca flux assay IC50 (nM), block of signaling induced by CCL1 at 60 ng/ml; CHO cells expressing human CCR8 (human CCR8 [4]): 0.52 nM
B3: TPP-20955 (antibody, human IgG1, lambda, V domains shown)
VH: EVQLLESGGGLVQPGGSLRLSCAASGFTFSSYGMHWVRQAPGKGLEWVSAIKWGGGSHGYADSVKGRFTISRDNSKNTLYLQMNSLRAEDTAVYYCARGHHKGYDGRFFDYWGQGTLVTVSS
VL: QSVLTQPPSVSGAPGQRVTISCTGSSSNIGAGYNVHWYQQLPGTAPKLLIYTNNRRPSGVPDRFSGSKSGTSASLAISGLRSEDEADYYCAAWDASLSGWVFGGGTKLTVLG
